{
  "source": "paper PMC2778851",
  "key": {"[1]": {"biological_target": "His-HTLV-1 125 PR (N-terminally His-tagged full-length stabilized HTLV-1 protease) (Human T-lymphotropic virus type 1 (HTLV-1))", "test": "pull-down"}, "[2]": {"biological_target": "HTLV-1 120 PR (HTLV-1 protease shortened by 5 C-terminal residues) (Human T-lymphotropic virus type 1 (HTLV-1))", "test": "activity-based dimerization assay"}, "[3]": {"biological_target": "HTLV-1 125 PR (stabilized full-length HTLV-1 protease) (Human T-lymphotropic virus type 1 (HTLV-1))", "test": "SEC"}, "[4]": {"biological_target": "HTLV-1 125 PR (stabilized full-length HTLV-1 protease) (Human T-lymphotropic virus type 1 (HTLV-1))", "test": "activity-based dimerization assay"}},
  "data": [
    {"substance": "HTLV-1 115 PR (HTLV-1 protease shortened by 10 C-terminal residues) (domain or fragment)", "values": [
      {"measurement": "densitometric ratio of the untagged to the His-tagged band (115/H125)", "setting": "[1]", "value": 37.3}
    ]},
    {"substance": "HTLV-1 120 PR (HTLV-1 protease shortened by 5 C-terminal residues) (domain or fragment)", "values": [
      {"measurement": "densitometric ratio of the untagged to the His-tagged band (120/H125)", "setting": "[1]", "value": 37.2},
      {"measurement": "Kd", "setting": "[2]", "value": "> 3000", "unit": "nM"}
    ]},
    {"substance": "HTLV-1 125 PR (stabilized full-length HTLV-1 protease) (enzyme)", "values": [
      {"measurement": "stoichiometry N", "setting": "[3]", "value": 2},
      {"measurement": "densitometric ratio of the untagged to the His-tagged band (125/H125)", "setting": "[1]", "value": 84.9},
      {"measurement": "Kd", "setting": "[4]", "value": 491, "unit": "nM"}
    ]}
  ]
}
